Experiment [1] addresses T1, mFGFR4-Histag (murine, UniProt Q03142 19-362).
T1 construct: also called murine protein mFGFR4; murine FGF-R4
The experiment in a line: ELISA on coated FGF-R4 constructs, single condition, antibody concentration not given.

Experiment [2] addresses T2, hFGFR3-Fc (human, UniProt P22607 23-375).
T2 construct: extracellular domain; Bought from R&D Systems; not shown: Fc domain of human IgG1
T2 sequence (looked up): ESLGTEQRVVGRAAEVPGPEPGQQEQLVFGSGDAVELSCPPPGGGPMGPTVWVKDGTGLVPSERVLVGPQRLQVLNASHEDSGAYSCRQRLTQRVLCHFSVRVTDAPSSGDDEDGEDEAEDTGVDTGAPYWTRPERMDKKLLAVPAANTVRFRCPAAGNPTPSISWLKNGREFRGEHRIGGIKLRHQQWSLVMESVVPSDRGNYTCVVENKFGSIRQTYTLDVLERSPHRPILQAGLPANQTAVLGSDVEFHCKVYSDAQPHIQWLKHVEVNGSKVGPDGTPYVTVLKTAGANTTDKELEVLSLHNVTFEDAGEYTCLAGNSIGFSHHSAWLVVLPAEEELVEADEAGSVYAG
Description: ELISA on plates coated with the 4 human FGF receptors, single condition, antibody concentration not given.

Experiment [3] concerns the target T3, human FGF-R4 recombinant extracellular domain protein, construct not named (human, UniProt P22455 22-369).
T3 construct: extracellular domain; also called the FGF-R4 protein; complete extracellular domain of human FGF-R4
Description: SPR (BIAcore), antibody captured by anti-Fc antibody on the chip.

Experiment [4] deals with T1, mFGFR4-Histag. The experiment in a line: SPR (BIAcore 3000).
For experiment [5], the target named is T4, hFGFR4-Histag (human, UniProt P22455 22-365).
T4 construct: also called SABVA4614
Description: SPR (BIAcore 3000).

Experiment [6] concerns the target T5, hFGFR4(D2,D3)-Histag (human, UniProt P22455 22-365).
T5 construct: also called extracellular domain of FGF-R4 deleted of its D1 domain
Description: ELISA, HEK293 supernatant IgG on coated antigen.
Description: (§1) The capture antigen was bound to Immulon-4 enzyme-linked plates (VWR Scientific Inc. Swedesboro, N.J.).

The target of experiment [7] is T4, hFGFR4-Histag. The experiment in a line: ELISA, HEK293 supernatant IgG on coated antigen.
Description: as §1
For the next experiment, the target named is T6, hFGFR2-Fc (human).
T6 construct: Extracellular domain of human FGF-R2 IIIc fused C-terminally to the Fc domain of human IgG1
The experiment in a line: phage Fab ELISA on coated antigen, anti-M13 detection.

In the next experiment the target is T7, hFGFR1-Fc (human).
T7 construct: Extracellular domain of human FGF-R1 IIIc fused C-terminally to the Fc domain of human IgG1
The experiment is described as above.

In experiment [8] the target is T2, hFGFR3-Fc. Described as above.
Description: (§2) The specificity of each antibody is established by ELISA according to the following protocol: suspensions of phages displaying, at their surface, the antibodies in the Fab format are generated by infection of E. coli bacteria. The capture antigens were bound to Immulon-2 enzyme-linked dishes (VWR Scientific Inc. Swedesboro, N.J.).
For experiment [9], the target named is T5, hFGFR4(D2,D3)-Histag. The experiment is described as above.
Description: as §2

T1 sequence (Q03142 other isoform, or with tags, fused parts or gaps): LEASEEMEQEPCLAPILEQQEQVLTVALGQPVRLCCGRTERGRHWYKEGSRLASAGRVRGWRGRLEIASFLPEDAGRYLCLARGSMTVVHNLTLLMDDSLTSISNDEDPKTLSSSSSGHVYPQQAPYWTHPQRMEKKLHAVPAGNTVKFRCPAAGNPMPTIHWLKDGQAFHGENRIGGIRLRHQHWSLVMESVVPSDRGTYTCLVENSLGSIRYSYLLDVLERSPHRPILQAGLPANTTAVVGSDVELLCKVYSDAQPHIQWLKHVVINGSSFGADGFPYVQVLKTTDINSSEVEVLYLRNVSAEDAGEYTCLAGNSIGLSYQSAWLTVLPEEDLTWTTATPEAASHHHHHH
Description for hFGFR1-Fc: as §2
Description for hFGFR2-Fc: as §2

B1: anti-FGFR4 antibody 64-12 (antibody, mouse IgG1, V domains shown)
VH: DVQLVESGGGLVQPGGSRKLSCAASGFTFSNFGMHWVRQAPEKGLEWVAYISSGSSTIYYADTVKGRFTISRDNPKNTLFLQMTSLRSEDTAMYYCARYDYDDDYYAMEYWGQGTSVTVSS
VL: QAVVTQESALTTSPGETVTLTCRSSTGAVTTSNYANWVQEKPDHLFTGLIGGTNNRAPGVPARFSGSLIGDKAALTITGAQTEDEAIYFCALWYSNHWVFGGGTKLTVLG
notes: also called clone 64-12; control antibody 64-12
As for B1, in the experiment with mFGFR4-Histag [1], the binding result was “binds”. Further, the binding result with hFGFR3-Fc [2] is recorded as “binds”. Also, in experiment [3], the Kd came out at 57.5 nM, the koff was 0.000602 s⁻¹ and the kon turned out to be 10500 M⁻¹ s⁻¹.

B2: anti-FGFR4 antibody clone 31 (human IgG1 format) (antibody, V domains shown)
VH: EVQLLESGGGLVQPGGSLRLSCAASGFTFSRYFMKWVRQAPGKGLEWVSWISPSGGLTEYADSVKGRFTISRDNSKNTLYLQMNSLRAEDTAVYYCARASYGAWLDYWGQGTLVTVSS
VL: DIQMTQSPSSLSLSPGERATLSCRASQSINRNLGWYQQKPGQAPRLLIYGASTRATGIPARFTGSGSGTEFSLTISSLQSEDYAIYYCQQYDNWPIIFGQGTRLEIKG
notes: As for clone 8: human IgG1 format from HEK293; also called antibody 31
Turning to B2, in the experiment with mFGFR4-Histag [4], binding was characterised by a dissociation constant (Kd) of 1.97 nM, the koff is 0.0018 s⁻¹ and the kon turned out to be 914000 M⁻¹ s⁻¹. In the experiment with hFGFR4-Histag [5], this molecule had a Kd of 1.52 nM, a koff of 0.00098 s⁻¹ and a kon of 648000 M⁻¹ s⁻¹. The “OD signal at 450 nm” value with hFGFR4(D2,D3)-Histag [6] came out at 3.74 OD 450 nm. Further, the “OD signal at 450 nm” value with hFGFR4-Histag [7] is 3.86 OD 450 nm.

B3: clone 31 in the Fab format displayed on phage (Fab, V domains shown)
VH: EVQLLESGGGLVQPGGSLRLSCAASGFTFSRYFMKWVRQAPGKGLEWVSWISPSGGLTEYADSVKGRFTISRDNSKNTLYLQMNSLRAEDTAVYYCARASYGAWLDYWGQGTLVTVSS
VL: DIQMTQSPSSLSLSPGERATLSCRASQSINRNLGWYQQKPGQAPRLLIYGASTRATGIPARFTGSGSGTEFSLTISSLQSEDYAIYYCQQYDNWPIIFGQGTRLEIKG
Turning to B3, the “ELISA signal (OD, 450 nm)” value with hFGFR2-Fc came to 0 OD 450 nm; in the experiment with hFGFR1-Fc, 0 OD 450 nm; with hFGFR3-Fc [8] it was 0.01 OD 450 nm; with hFGFR4(D2,D3)-Histag [9], 2.52 OD 450 nm.

B4: anti-FGFR4 antibody clone 33 (human IgG1 format) (antibody, V domains shown)
VH: EVQLLESGGGLVQPGGSLRLSCAASGFTFSTYWMAWVRQAPGKGLEWVSVIGPSGGMTVYADSVKGRFTISRDNSKNTLYLQMNSLRAEDTAVYYCARINSGSSHFDYWGQGTLVTVSS
VL: QSVLTQPPSASGTPGQGVTISCSGSSSNIGSNSVNWYQQLPGAAPKLLIYSNNLRPSGVPARFSGSKSGTSASLAISGLRSEDEADYYCAAWDDGLDAYVVFGGGTKLTVLG
notes: As for clone 8: human IgG1 format from HEK293; also called antibody 33
In the experiment with mFGFR4-Histag [4], B4 yielded an equilibrium dissociation constant (Kd) of 0.692 nM, a koff of 0.000704 s⁻¹ and a kon of 1.01e+06 M⁻¹ s⁻¹. In the experiment with hFGFR4-Histag [5], this molecule showed a Kd of 0.771 nM, a koff of 0.000617 s⁻¹ and a kon of 805000 M⁻¹ s⁻¹. Moreover, the “OD signal at 450 nm” value with hFGFR4(D2,D3)-Histag [6] amounted to 3.62 OD 450 nm. Besides, in the experiment with hFGFR4-Histag [7], the “OD signal at 450 nm” value was 3.75 OD 450 nm.

B5: clone 33 in the Fab format displayed on phage (Fab, V domains shown)
VH: EVQLLESGGGLVQPGGSLRLSCAASGFTFSTYWMAWVRQAPGKGLEWVSVIGPSGGMTVYADSVKGRFTISRDNSKNTLYLQMNSLRAEDTAVYYCARINSGSSHFDYWGQGTLVTVSS
VL: QSVLTQPPSASGTPGQGVTISCSGSSSNIGSNSVNWYQQLPGAAPKLLIYSNNLRPSGVPARFSGSKSGTSASLAISGLRSEDEADYYCAAWDDGLDAYVVFGGGTKLTVLG
Regarding B5, the “ELISA signal (OD, 450 nm)” value with hFGFR2-Fc was 0 OD 450 nm; with hFGFR1-Fc, 0 OD 450 nm; with hFGFR3-Fc [8], -0.01 OD 450 nm; in the experiment with hFGFR4(D2,D3)-Histag [9], 2.73 OD 450 nm.

B6: anti-FGFR4 antibody clone 8 (human IgG1 format) (antibody, V domains shown)
VH: EVQLLESGGGLVQPGGSLRLSCAASGFTFSPYWMGWVRQAPGKGLEWVSVIWPSGGTTDYADSVKGRFTISRDNSKNTLYLQMNSLRAEDTAVYYCARVHPAGHNDHWGQGTLVTVSS
VL: QSELTQPPSASGTPGQRVTISCSGGYSNMGSNYAHWYQQLPGTAPKLLIYNNNQRPSGVPDRFSGSKSGTSASLAISGLRSEDEADYYCAAWDDSLSGPVFGGGTKLTVLG
notes: also called antibody 8
For B6, in the experiment with mFGFR4-Histag [4], binding was characterised by a dissociation constant (Kd) of 0.115 nM, the koff stood at 0.000136 s⁻¹ and the kon is 1.2e+06 M⁻¹ s⁻¹. Also, in the experiment with hFGFR4-Histag [5], the Kd came to 0.327 nM, the koff is 0.000292 s⁻¹ and the kon was 893000 M⁻¹ s⁻¹. In the experiment with hFGFR4(D2,D3)-Histag [6], the “OD signal at 450 nm” value worked out at 3.86 OD 450 nm. Further, in the experiment with hFGFR4-Histag [7], the “OD signal at 450 nm” value worked out at 3.9 OD 450 nm.

B7: clone 8 in the Fab format displayed on phage (Fab, V domains shown)
VH: EVQLLESGGGLVQPGGSLRLSCAASGFTFSPYWMGWVRQAPGKGLEWVSVIWPSGGTTDYADSVKGRFTISRDNSKNTLYLQMNSLRAEDTAVYYCARVHPAGHNDHWGQGTLVTVSS
VL: QSELTQPPSASGTPGQRVTISCSGGYSNMGSNYAHWYQQLPGTAPKLLIYNNNQRPSGVPDRFSGSKSGTSASLAISGLRSEDEADYYCAAWDDSLSGPVFGGGTKLTVLG
For B7, the “ELISA signal (OD, 450 nm)” value worked out at 0 OD 450 nm with hFGFR2-Fc, 0.05 OD 450 nm with hFGFR1-Fc, 0 OD 450 nm with hFGFR3-Fc [8] and 2.55 OD 450 nm in the experiment with hFGFR4(D2,D3)-Histag [9].

B8: anti-FGFR4 antibody clone 36 (human IgG1 format) (antibody, V domains shown)
VH: EVQLLESGGGLVQPGGSLRLSCAASGFTFSHYWMGWVRQAPGKGLEWVSVISPSGGLTIYADSVKGRFTISRDNSKNTLYLQMNSLRAEDTAVYYCARSSGWALDAFDIWGQGTMVTVSS
VL: QYELTQPPSASGTPGQRVTISCSGSSSNIGSNIVHWYQQLPGTAPKLLIYGNNQRPSGVPDRFSVSKSGSSASLAISGLQSEDEADYYCASWDDSLKAFYVFGTGTKVTVLG
notes: As for clone 8: human IgG1 format from HEK293; also called antibody 36
In the experiment with mFGFR4-Histag [4], B8 displayed a Kd of 2.28 nM, a koff of 0.000752 s⁻¹ and a kon of 330000 M⁻¹ s⁻¹. In addition, in the experiment with hFGFR4-Histag [5], the Kd is 2.62 nM, the koff was 0.000631 s⁻¹ and the kon worked out at 244000 M⁻¹ s⁻¹. Moreover, the “OD signal at 450 nm” value with hFGFR4(D2,D3)-Histag [6] stood at 3.62 OD 450 nm. For the same molecule, the “OD signal at 450 nm” value in the experiment with hFGFR4-Histag [7] was 3.75 OD 450 nm.

B9: clone 36 in the Fab format displayed on phage (Fab, V domains shown)
VH: EVQLLESGGGLVQPGGSLRLSCAASGFTFSHYWMGWVRQAPGKGLEWVSVISPSGGLTIYADSVKGRFTISRDNSKNTLYLQMNSLRAEDTAVYYCARSSGWALDAFDIWGQGTMVTVSS
VL: QYELTQPPSASGTPGQRVTISCSGSSSNIGSNIVHWYQQLPGTAPKLLIYGNNQRPSGVPDRFSVSKSGSSASLAISGLQSEDEADYYCASWDDSLKAFYVFGTGTKVTVLG
As to B9, the “ELISA signal (OD, 450 nm)” value is -0.01 OD 450 nm with hFGFR2-Fc, -0.01 OD 450 nm with hFGFR1-Fc, -0.02 OD 450 nm with hFGFR3-Fc [8] and 1.87 OD 450 nm with hFGFR4(D2,D3)-Histag [9].
